Legend:
[1] = target: Low-density lipoprotein receptor-related protein 1 (LRP1), purified from human placenta (human (purified from human placenta)) (UniProt Q07954); assay: SPR
[2] = target: Recombinant human LRP1 cluster III Fc chimera protein (human); assay: SPR
[3] = target: Recombinant human LRP1 cluster II Fc chimera protein (human); assay: SPR
[4] = target: Recombinant human LRP1 cluster IV Fc chimera protein (human); assay: SPR
LRP1 (Homo sapiens) = LRP1 (Homo sapiens) (UniProt Q07954); conditions: cited from earlier work
LRP1 (Homo sapiens), sequence (Q07954 20-4544): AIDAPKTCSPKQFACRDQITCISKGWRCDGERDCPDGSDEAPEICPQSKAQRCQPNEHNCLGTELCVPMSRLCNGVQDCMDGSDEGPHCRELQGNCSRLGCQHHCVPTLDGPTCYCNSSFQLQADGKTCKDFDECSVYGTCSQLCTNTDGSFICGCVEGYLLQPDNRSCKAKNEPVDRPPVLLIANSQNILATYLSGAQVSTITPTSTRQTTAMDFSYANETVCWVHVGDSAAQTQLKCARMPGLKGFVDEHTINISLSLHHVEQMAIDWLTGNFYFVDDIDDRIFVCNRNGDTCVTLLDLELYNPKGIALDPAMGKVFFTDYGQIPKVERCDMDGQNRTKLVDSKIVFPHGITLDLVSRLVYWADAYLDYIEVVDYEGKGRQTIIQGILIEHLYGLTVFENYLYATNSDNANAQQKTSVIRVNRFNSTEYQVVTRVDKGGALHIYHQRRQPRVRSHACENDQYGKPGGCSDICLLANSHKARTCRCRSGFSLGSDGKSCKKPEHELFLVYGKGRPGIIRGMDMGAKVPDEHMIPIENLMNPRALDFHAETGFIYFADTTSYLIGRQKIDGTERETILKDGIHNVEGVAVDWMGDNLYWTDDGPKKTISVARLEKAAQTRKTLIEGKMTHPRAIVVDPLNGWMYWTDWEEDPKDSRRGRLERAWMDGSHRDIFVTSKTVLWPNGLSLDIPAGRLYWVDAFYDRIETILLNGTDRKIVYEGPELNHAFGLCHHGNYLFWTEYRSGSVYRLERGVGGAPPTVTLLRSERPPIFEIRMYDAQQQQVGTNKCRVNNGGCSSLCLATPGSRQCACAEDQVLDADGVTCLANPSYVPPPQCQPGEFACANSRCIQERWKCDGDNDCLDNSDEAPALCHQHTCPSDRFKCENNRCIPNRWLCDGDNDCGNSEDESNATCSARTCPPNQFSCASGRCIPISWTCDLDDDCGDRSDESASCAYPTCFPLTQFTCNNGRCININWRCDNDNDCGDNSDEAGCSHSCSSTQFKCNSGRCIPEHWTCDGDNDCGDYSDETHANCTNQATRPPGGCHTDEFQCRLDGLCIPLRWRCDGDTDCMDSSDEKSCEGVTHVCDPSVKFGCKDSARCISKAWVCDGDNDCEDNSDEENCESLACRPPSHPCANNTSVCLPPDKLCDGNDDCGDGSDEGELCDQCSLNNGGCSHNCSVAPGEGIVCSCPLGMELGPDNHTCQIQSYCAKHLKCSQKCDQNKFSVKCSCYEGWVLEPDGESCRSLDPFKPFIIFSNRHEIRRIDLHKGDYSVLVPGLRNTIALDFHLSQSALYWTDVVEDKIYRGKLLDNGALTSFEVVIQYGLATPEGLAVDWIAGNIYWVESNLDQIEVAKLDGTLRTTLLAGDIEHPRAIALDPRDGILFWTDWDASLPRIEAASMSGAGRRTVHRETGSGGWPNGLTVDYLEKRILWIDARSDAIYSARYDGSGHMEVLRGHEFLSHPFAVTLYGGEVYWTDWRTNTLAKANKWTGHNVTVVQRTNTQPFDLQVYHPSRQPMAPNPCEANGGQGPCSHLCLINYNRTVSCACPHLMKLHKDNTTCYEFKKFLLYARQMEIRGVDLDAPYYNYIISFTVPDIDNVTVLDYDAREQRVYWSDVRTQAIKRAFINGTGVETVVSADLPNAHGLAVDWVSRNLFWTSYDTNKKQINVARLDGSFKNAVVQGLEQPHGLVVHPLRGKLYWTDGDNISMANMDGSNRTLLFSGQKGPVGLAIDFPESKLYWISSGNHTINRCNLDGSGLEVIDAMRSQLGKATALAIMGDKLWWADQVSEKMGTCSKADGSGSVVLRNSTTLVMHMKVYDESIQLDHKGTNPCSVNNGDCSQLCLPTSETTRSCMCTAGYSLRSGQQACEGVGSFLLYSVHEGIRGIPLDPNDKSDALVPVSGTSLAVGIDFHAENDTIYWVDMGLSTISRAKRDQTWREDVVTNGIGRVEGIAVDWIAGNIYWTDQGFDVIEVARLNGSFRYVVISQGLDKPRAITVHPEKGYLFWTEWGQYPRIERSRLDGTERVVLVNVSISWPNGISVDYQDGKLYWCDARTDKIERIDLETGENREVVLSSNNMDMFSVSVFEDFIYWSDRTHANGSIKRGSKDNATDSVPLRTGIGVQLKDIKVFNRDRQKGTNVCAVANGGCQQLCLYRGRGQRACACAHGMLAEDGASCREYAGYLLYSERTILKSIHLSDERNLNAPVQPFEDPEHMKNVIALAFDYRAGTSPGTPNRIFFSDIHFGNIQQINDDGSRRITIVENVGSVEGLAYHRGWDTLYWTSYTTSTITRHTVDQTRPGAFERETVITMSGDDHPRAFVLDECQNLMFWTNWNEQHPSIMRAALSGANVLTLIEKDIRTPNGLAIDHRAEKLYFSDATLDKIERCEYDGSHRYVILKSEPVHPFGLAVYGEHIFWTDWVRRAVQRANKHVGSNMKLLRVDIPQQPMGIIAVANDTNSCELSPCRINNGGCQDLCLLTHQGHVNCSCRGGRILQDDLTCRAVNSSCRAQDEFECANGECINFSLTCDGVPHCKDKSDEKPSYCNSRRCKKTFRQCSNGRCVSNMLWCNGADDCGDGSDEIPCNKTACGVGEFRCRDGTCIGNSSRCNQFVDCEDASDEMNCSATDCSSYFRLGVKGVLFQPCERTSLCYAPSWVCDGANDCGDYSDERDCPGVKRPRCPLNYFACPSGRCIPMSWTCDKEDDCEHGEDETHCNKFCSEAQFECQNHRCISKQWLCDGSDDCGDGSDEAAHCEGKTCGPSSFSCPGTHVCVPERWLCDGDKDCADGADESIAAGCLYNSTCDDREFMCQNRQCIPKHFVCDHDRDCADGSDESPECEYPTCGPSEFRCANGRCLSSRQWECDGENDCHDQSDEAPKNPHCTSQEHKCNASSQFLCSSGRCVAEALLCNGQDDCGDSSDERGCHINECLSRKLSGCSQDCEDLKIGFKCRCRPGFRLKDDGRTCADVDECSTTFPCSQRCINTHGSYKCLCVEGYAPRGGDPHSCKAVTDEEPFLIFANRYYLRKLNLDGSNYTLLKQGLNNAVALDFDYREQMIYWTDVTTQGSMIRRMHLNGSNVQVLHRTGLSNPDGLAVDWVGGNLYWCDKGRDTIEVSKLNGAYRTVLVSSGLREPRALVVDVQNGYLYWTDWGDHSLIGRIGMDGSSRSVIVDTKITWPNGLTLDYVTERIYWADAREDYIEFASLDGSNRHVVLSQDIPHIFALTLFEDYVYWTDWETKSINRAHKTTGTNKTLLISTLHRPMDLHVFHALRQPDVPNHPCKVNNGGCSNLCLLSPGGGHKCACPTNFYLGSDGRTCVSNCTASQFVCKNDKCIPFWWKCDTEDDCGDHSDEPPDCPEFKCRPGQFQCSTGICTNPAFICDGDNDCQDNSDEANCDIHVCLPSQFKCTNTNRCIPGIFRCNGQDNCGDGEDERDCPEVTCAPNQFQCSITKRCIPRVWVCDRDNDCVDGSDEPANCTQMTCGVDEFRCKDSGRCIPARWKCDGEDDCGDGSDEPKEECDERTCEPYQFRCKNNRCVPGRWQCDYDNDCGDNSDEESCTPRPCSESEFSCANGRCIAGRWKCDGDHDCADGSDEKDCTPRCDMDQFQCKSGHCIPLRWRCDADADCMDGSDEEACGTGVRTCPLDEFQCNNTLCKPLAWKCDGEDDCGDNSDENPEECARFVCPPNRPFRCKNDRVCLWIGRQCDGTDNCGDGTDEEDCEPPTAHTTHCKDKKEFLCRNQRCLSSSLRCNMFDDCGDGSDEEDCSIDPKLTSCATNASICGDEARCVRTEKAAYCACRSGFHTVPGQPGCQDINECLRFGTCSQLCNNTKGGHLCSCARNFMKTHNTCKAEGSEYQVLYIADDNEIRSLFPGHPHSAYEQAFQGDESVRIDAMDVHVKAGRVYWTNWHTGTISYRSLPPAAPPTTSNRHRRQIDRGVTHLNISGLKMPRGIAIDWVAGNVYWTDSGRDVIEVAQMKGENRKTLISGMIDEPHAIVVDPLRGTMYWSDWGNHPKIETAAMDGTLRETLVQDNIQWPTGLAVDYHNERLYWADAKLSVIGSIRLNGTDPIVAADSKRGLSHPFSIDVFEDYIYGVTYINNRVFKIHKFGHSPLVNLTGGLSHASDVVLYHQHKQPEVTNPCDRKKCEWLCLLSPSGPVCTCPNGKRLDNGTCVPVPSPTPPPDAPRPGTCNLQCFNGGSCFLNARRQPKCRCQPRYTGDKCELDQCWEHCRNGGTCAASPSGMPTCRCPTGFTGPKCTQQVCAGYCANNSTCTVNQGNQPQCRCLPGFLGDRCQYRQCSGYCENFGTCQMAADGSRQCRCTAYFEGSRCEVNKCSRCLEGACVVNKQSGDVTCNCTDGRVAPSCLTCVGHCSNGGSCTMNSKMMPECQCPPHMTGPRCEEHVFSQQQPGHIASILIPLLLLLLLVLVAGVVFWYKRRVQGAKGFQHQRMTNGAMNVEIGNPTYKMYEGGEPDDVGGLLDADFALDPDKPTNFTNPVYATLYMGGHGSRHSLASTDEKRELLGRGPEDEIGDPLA

Low-density lipoprotein receptor-related protein 1 (LRP1), purified from human placenta (human (purified from human placenta)), sequence (Q07954 20-4544): as above
Tissue inhibitor of metalloproteases 1 (TIMP-1), sequence (P01033 24-207): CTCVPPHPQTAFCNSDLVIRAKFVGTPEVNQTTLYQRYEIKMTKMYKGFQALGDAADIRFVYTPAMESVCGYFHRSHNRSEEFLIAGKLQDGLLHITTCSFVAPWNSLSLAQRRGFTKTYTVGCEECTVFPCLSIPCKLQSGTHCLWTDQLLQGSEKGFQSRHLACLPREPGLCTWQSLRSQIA

Row | Substance | ka2 (bivalent model, second step) [1] [s⁻¹] | kd1 (bivalent model, first step) [1] [s⁻¹] | kd2 (bivalent model, second step) [1] [s⁻¹] | Kd [2] [nM] | Kd [3] [nM] | Kd [4] [nM] | also measured
1 | Active MMP-1 (enzyme) | 0.0084 | 0.017 | 0.0015 |  |  |  | Kd [1]: 25 nM
2 | MMP-1/TIMP-3 complex (from UniProt P03956) |  |  |  |  |  |  | Kd (LRP1 (Homo sapiens)): 5 nM

More lines, main results first:

Row | ka2 (bivalent model, second step) [1] [s⁻¹] | kd1 (bivalent model, first step) [1] [s⁻¹] | kd2 (bivalent model, second step) [1] [s⁻¹] | Kd [2] [nM] | Kd [3] [nM] | Kd [4] [nM] | Substance | also measured
3 |  |  |  | 34 | 169 | 358 | Human His-tagged proMMP-1 (from UniProt P03956 20-469) (enzyme) | 
4 | 0.012 | 0.026 | 2.7e-05 | 12 | 27 | 32 | MMP-1/TIMP-1 complex (from UniProt P01033 24-207) | ka1 (bivalent model, first step) [1]: 93000 M⁻¹ s⁻¹; ka1 (bivalent model, first step) [2]: 200000 M⁻¹ s⁻¹; ka2 (bivalent model, second step) [2]: 0.019 s⁻¹; kd1 (bivalent model, first step) [2]: 0.079 s⁻¹; kd2 (bivalent model, second step) [2]: 0.00062 s⁻¹; ka1 (bivalent model, first step) [3]: 120000 M⁻¹ s⁻¹; ka2 (bivalent model, second step) [3]: 0.02 s⁻¹; kd1 (bivalent model, first step) [3]: 0.077 s⁻¹; kd2 (bivalent model, second step) [3]: 0.00085 s⁻¹; ka1 (bivalent model, first step) [4]: 99000 M⁻¹ s⁻¹; ka2 (bivalent model, second step) [4]: 0.02 s⁻¹; kd1 (bivalent model, first step) [4]: 0.064 s⁻¹; kd2 (bivalent model, second step) [4]: 0.001 s⁻¹
5 |  |  |  | 39 | 129 | 391 | Tissue inhibitor of metalloproteases 1 (TIMP-1) (from UniProt P01033 24-207) (natural protein) | 

Reference: publication PMC7503162
